For 2 substances, IC50 results are on record in patent US20250009854A1.

The target in the assay is NL63 trimer (human coronavirus NL63).

Substance flACE2-Fc-WT (Fc fusion) returned an IC50 of 0.0527 µM.

Regarding trACE2-Fc-WT (Fc fusion), the IC50 was 0.1 µM.
